From PMC9365698, “A physical wiring diagram for the human immune system” (Nature, 2022)

What was measured:
Assay in all cases: SAVEXIS (scalable arrayed multi-valent extracellular interaction screen); biotinylated bait (100 fmol per well) captured on streptavidin-coated 384-well plates; prey multimerised on streptavidin-HRP (25 fmol protein with 6.25 fmol SAV-HRP); 60 min at 20 °C in 2% BSA in HBS pH 7.4 (1 mM MgCl2, 2 mM CaCl2); desthiobiotin washes; TMB absorbance at 650 nm; both bait-prey orientations; primary and secondary screen
Conditions in all cases: both partners purified
[1] = target: T1, Plasmodium falciparum P41 protein (Plasmodium falciparum, UniProt Q8I1Y0 21-378)
T1 construct: P41 protein of Plasmodium falciparum; P41 was the bait in two control wells of every screening plate
T1 sequence: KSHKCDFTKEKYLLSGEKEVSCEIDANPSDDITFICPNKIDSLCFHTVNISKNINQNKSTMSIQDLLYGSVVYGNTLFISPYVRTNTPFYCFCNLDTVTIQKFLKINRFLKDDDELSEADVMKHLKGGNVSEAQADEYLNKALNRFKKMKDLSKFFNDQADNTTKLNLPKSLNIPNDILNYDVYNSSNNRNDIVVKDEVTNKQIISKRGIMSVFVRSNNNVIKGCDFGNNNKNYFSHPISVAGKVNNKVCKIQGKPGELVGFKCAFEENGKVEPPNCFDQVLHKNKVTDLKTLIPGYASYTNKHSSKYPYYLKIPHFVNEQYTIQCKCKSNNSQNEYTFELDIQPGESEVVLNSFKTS

[2] = target: T2, JAG1 (human, UniProt P78504 34-1067, biotin on the biotin-acceptor site (enzymatic, co-transfected BirA))
T2 construct: JAG1 (Jagged-1), human, full ectodomain; also called Jagged ligands

[3] = target: T3, PVR (human, UniProt P15151 21-343, biotin on the biotin-acceptor site (enzymatic, co-transfected BirA))
T3 construct: PVR (poliovirus receptor), human, full ectodomain
T3 sequence (looked up): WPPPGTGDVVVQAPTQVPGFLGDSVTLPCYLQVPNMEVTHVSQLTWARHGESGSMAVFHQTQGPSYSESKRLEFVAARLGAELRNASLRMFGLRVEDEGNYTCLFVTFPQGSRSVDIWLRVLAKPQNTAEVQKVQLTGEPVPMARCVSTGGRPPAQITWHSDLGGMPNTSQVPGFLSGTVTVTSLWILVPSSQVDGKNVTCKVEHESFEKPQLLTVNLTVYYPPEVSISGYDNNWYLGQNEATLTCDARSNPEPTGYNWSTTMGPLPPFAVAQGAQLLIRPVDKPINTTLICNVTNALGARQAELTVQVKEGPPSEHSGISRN

B1: Plasmodium falciparum P12 (natural protein)
chain: HKNLTCDFNDVYKLEFHPNQQTSVTKLCNLTPNVLEKVTIKCGSDKLNYNLYPPTCFEEVYASRNMMHLKKIKEFVIGSSMFMRRSLTPNKINEVSFRIPPNMMPEKPIYCFCENKKTITINGSNGNPSSKKDIINRGIVEIIIPSLNEKVKGCDFTTSESTIFSKGYSINEISNKSSNNQQDIVCTVKAHANDLIGFKCPSNYSVEPHDCFVSAFNLSGKNENLENKLKLTNIIMDHYNNTFYSRLPSLISDNWKFFCVCSKDNEKKLVFTVEASISSSNTKLASRDNTYQDYISN
notes: P12 protein of Plasmodium falciparum; P12 was presented as a prey (multimerised on streptavidin-HRP) for the positive control
**Q.** Does B1 bind [1]?
**A.** binds

B2: VASN (receptor, human, UniProt Q6EMK4 24-575, looked up)
chain: CPSGCQCSQPQTVFCTARQGTTVPRDVPPDTVGLYVFENGITMLDAGSFAGLPGLQLLDLSQNQIASLPSGVFQPLANLSNLDLTANRLHEITNETFRGLRRLERLYLGKNRIRHIQPGAFDTLDRLLELKLQDNELRALPPLRLPRLLLLDLSHNSLLALEPGILDTANVEALRLAGLGLQQLDEGLFSRLRNLHDLDVSDNQLERVPPVIRGLRGLTRLRLAGNTRIAQLRPEDLAGLAALQELDVSNLSLQALPGDLSGLFPRLRLLAAARNPFNCVCPLSWFGPWVRESHVTLASPEETRCHFPPKNAGRLLLELDYADFGCPATTTTATVPTTRPVVREPTALSSSLAPTWLSPTEPATEAPSPPSTAPPTVGPVPQPQDCPPSTCLNGGTCHLGTRHHLACLCPEGFTGLYCESQMGQGTRPSPTPVTPRPPRSLTLGIEPVSPTSLRVGLQRYLQGSSVQLRSLRLTYRNLSGPDKRLVTLRLPASLAEYTVTQLRPNATYSVCVMPLGPGRVPEGEEACGEAHTPPAVHSNHAPVTQAREGNLP
modifications: biotin on the biotin-acceptor site (enzymatic, co-transfected BirA)
notes: VASN (vasorin), human, full ectodomain; also called vasorin
**Q.** Does B2 bind [2]?
**A.** binds

B3: KIR2DL5A (receptor, human, UniProt Q8N109 22-238, looked up)
chain: HEGGQDKPLLSAWPSAVVPRGGHVTLLCRSRLGFTIFSLYKEDGVPVPELYNKIFWKSILMGPVTPAHAGTYRCRGSHPRSPIEWSAPSNPLVIVVTGLFGKPSLSAQPGPTVRTGENVTLSCSSRSSFDMYHLSREGRAHEPRLPAVPSVNGTFQADFPLGPATHGGTYTCFGSLHDSPYEWSDPSDPLLVSVTGNSSSSSSSPTEPSSKTGIRRH
modifications: biotin on the biotin-acceptor site (enzymatic, co-transfected BirA)
notes: KIR2DL5A, human, full ectodomain
**Q.** Does B3 bind [3]?
**A.** binds
